From patent US20150057236A1 (CORNELL UNIVERSITY, published 2015)
One block for each binder: values may come before it. *1 amine or outer side, *2 acyl side, *3 side chain or, on linkers, in order; H or OH if unused. Where no end group is shown, it is not given here. The star is where a group is joined. thiosuccinyl = thiosuccinyl group on a lysine side chain (thiosuccinyl lysine); AMC = Cc1cc(=O)oc2cc(N*)ccc12; Suc = O=C(CCC(=O)[*:2])[*:1]

Experiments:
Assay in all cases: cell-based or functional assay
human Sirt5 [1] = biological target: T1, human Sirt5 (human, UniProt Q9NXA8 1-310, limits assumed)
T1 sequence (Q9NXA8 whole entry): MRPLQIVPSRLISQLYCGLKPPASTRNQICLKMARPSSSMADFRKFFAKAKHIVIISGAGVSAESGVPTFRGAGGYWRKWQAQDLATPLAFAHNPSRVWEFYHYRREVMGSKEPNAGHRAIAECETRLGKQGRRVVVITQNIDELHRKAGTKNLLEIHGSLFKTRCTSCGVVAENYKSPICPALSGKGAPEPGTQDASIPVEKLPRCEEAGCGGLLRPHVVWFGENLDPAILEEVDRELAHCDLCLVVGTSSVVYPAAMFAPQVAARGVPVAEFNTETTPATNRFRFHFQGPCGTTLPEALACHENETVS

human Sirt1 = biological target: T2, human Sirt1 (human, UniProt Q96EB6 1-747, limits assumed)
T2 sequence (looked up): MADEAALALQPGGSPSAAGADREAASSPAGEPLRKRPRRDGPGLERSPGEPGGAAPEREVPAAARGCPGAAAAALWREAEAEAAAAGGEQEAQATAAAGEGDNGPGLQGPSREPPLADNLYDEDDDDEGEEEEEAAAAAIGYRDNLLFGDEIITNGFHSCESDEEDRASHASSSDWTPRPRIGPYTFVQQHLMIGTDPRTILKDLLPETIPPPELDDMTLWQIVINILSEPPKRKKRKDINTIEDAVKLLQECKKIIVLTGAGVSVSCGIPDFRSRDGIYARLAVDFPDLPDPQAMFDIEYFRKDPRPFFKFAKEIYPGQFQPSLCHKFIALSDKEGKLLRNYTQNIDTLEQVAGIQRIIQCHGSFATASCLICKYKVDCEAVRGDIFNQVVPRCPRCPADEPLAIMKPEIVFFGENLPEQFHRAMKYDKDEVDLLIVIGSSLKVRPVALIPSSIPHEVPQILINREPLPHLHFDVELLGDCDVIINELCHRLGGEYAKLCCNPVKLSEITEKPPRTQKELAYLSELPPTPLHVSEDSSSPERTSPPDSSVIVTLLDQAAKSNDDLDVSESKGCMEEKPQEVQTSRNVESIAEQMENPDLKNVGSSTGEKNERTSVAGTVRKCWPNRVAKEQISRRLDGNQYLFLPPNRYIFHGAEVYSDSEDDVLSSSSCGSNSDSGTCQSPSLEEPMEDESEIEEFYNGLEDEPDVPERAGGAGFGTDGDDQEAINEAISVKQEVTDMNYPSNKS

human Sirt3 = biological target: T3, human Sirt3 (human, UniProt Q9NTG7 102-399, limits assumed)
T3 sequence (looked up): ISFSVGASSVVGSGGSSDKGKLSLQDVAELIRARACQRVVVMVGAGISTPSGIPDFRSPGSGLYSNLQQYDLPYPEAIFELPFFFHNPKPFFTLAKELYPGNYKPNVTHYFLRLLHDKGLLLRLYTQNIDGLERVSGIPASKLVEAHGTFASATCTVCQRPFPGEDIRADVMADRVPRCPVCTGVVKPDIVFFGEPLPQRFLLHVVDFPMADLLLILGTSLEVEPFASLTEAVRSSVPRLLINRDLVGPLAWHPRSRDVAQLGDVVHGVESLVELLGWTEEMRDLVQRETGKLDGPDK

human Sirt5 [2] = biological target: T1, human Sirt5; remark: listed apart in the source
human Sirt2 = biological target: T4, human Sirt2 (human, UniProt Q8IXJ6 1-389, limits assumed)
T4 sequence (looked up): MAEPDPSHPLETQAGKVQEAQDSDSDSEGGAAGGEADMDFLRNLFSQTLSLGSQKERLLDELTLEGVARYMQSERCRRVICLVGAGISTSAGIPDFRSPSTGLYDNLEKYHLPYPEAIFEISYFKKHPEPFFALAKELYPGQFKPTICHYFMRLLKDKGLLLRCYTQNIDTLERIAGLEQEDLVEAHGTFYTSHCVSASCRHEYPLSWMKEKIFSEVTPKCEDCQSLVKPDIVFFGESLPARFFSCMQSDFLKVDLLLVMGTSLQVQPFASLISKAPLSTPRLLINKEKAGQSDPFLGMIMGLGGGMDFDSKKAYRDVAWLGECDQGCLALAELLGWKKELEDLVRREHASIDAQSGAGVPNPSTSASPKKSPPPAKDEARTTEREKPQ

fluorescence increase against control without Sirt5 (fluorogenic assay) (human Sirt5 [1]): ~3 fold
Binder: KQTARK(Suc)-{AMC} [KQTAR(SuK)-AMC peptide]

IC50 (µM), inhibition of sirtuin deacylase activity (human Sirt1): > 100 µM
IC50 (µM), inhibition of sirtuin deacylase activity (human Sirt3): > 100 µM
IC50 (µM), inhibition of sirtuin deacylase activity (human Sirt5 [2]): 5 µM
IC50 (µM), inhibition of sirtuin deacylase activity (human Sirt2): > 100 µM
Binder: KQTARK(thiosuccinyl)STGGKA [H3K9 thiosuccinyl (H3K9 TSu) peptide, KQTAR(TSuK)STGGKA]

fluorescence increase against control without Sirt5, 1 µM Sirt5 (human Sirt5 [1]): 11 fold
fluorescence increase against control without Sirt5, 2 µM Sirt5 (human Sirt5 [1]): 20 fold
fluorescence increase against control without Sirt5, 5 µM Sirt5 (human Sirt5 [1]): 26 fold
Binder: ISGASEK(Suc)-{AMC} [ISGASE(SuK)-AMC peptide]
